In experiment [1] the test system is Raw 264.7 cells. Kind of experiment: Osteoclastogenesis (TRAP staining) and bone resorption (pits) on osteologic slides, RANK ligand-stimulated. The experiment is classed as cell-based, Mouse. The settings on record: Raw 264.7 cells + 100 ng/ml murine soluble RANK ligand, 6 days; GM6001 5, 10, 25 μM; 539A-M0240-B03 10, 50 μg/ml; 539A-M0237-D02 10, 100 μg/ml; dose-dependent; data not shown. As to the method:
Cells. […] Cells between passage 3-7 were used in this study.
Materials. […] Tartrate-resistant acid phosphatase (TRAP) staining kit was obtained from KAMIYA BIOMEDICA COMPANY™, Seattle Wash. (Catalog #KT-008). GM6001 was obtained from MILLIPORE™.
Methods. Approximately 2000 Raw 264.7 cells per slide were seeded onto osteologic multitest slides with complete growth medium. […] The slides were then incubated at 37° C. for 6 days, replacing fresh media on day 3 as described above. At the end of incubation time, one side of the slide was stained for TRAP and the other side of the slide was bleached (10% bleach), washed several times with water, and air dried. The slides were then viewed under the microscope for either multinucleated TRAP positive cells or resorbed areas (pits). Cells incubated with media only and recombinant osteoprotegerin (rH OPG) (100 ng/ml) served as negative and positive controls, respectively.

Experiment [2] concerns the target T1, MMP-9 (Homo sapiens, UniProt P14780). The experiment is described as follows: MMP-9 inhibition, selectivity (statement, no method given). The experiment is classed as biochemical.
Target sequence in this assay (P14780 94-707, species assumed): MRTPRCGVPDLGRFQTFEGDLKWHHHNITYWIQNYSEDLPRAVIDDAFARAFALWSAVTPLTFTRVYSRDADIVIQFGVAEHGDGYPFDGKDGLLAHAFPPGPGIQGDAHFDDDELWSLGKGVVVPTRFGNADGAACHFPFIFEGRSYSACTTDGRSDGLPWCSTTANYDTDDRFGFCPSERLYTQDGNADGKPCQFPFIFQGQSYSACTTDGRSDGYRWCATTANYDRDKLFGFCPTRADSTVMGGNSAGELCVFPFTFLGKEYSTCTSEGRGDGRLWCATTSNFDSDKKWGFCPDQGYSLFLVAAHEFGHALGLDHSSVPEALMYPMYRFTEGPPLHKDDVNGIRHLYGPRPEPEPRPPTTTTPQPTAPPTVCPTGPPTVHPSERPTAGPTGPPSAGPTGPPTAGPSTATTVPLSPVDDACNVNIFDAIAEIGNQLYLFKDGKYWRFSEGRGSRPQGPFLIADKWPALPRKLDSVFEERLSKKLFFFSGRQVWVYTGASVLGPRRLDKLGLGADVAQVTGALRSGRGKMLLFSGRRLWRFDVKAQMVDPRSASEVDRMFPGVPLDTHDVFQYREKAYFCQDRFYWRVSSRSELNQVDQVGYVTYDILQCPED
In experiment [3] the target is T1, MMP-9. Kind of experiment: Inhibition of human MMP-9 activity (statement, no method given). The experiment is classed as biochemical.
Target sequence in this assay (P14780 94-707): as the sequence (P14780 94-707, species assumed) above
Experiment [4] concerns the target mouse MMP-9 (Mus musculus, UniProt P41245). The experiment is described as follows: Inhibition of mouse MMP-9 activity (statement, no method given). The experiment is classed as biochemical.
Experiment [5] has as its system PC-3 prostate cancer cells. The experiment is described as follows: PC-3 prostate cancer model, intra-tibial inoculation, osteolytic lesions. The experiment is classed as in vivo. As to conditions: mice, intra-tibial PC-3 cells; 10 mg/kg Q2D for 14 days, started 3 days after inoculation; vs PBS control; X-ray and bone histomorphometric analysis. As to the method:
PC-3 prostate cancer cells were inoculated intra-tibially into mice. Treatment was initiated 3 days after intra-tibial inoculation of the cells. DX-2400 (10 mg/kg) and a PBS control were administered Q2D for 14 days.

In experiment [6] the target is MMP-14 (Homo sapiens, UniProt P50281). Kind of experiment: MMP-14 inhibition (statement, no method given). The experiment is classed as biochemical.

mouse MMP-9, sequence (P41245 108-730): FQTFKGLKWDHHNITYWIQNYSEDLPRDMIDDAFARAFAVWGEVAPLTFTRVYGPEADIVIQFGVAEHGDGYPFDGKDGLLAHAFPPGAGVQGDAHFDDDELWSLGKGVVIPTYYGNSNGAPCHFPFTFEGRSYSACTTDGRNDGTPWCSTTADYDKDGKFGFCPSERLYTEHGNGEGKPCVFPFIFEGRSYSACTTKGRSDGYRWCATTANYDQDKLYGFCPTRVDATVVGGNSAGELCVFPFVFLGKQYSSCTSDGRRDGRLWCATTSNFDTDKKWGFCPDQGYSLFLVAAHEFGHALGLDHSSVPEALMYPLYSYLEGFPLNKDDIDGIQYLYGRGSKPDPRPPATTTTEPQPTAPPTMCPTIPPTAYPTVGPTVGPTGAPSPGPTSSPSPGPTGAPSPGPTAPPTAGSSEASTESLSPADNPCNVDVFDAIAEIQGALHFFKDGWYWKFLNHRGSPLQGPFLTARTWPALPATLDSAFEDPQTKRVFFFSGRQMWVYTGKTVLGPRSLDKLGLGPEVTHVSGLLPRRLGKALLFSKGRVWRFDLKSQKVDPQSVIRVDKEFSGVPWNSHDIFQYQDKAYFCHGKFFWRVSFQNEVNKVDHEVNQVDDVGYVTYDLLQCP

For `CNC(=O)[C@H](Cc1c[nH]c2ccccc12)NC(=O)[C@@H](CC(=O)NO)CC(C)C` [GM6001, reference compound], in experiment [1], the “effect on bone resorption (number of resorbed areas, pits)” value is listed as “inhibitory effects” and the “effect on osteoclastogenesis (TRAP-positive staining)” value was “inhibitory effects”.

B1: 539A-M0240-B03: exemplary MMP-9 antibody; LC CDRs SEQ ID NO: 14-16, HC CDRs SEQ ID NO: 17-19 (antibody, V domains shown)
VL: QYELTQPRSVSGSPGQSVTISCTGTSSDVGGYNYVSWYQQHPGKAPKLMIYDVSKRPSGVPDRFSGSKSGNTASLTISGLQAEDEADYYCCSYAGSYTLVFGGGTKLTVL
VH: EVQLLESGGGLVQPGGSLRLSCAASGFTFSTYQMVWVRQAPGKGLEWVSVIYPSGGPTVYADSVKGRFTISRDNSKNTLYLQMNSLRAEDTAVYYCARGEDYYDSSGPGAFDIWGQGTMVTVSS
Take B1: in experiment [1], the “effect on bone resorption (number of resorbed areas, pits)” value is reported as “inhibitory effects” and the “effect on osteoclastogenesis (TRAP-positive staining)” value is “inhibitory effects”. For the same molecule, the “selectivity of MMP-9 inhibition” value in experiment [2] is given as “selective inhibitor of MMP-9”. In addition, the “effect on activity of human MMP-9” value in experiment [3] is on record as “can decrease or inhibit the activity”. Also, in experiment [4], the “effect on activity of mouse MMP-9” value was “can decrease or inhibit the activity”.

B2: DX-2400: exemplary MMP-14 antibody; VH SEQ ID NO: 22, VL SEQ ID NO: 23; shares HC and LC CDRs with M0038-F01 (antibody, V domains shown)
VH: EVQLLESGGGLVQPGGSLRLSCAASGFTFSLYSMNWVRQAPGKGLEWVSSIYSSGGSTLYADSVKGRFTISRDNSKNTLYLQMNSLRAEDTAVYYCARGRAFDIWGQGTMVTVSS
VL: DIQMTQSPSSLSASVGDRVTITCRASQSVGTYLNWYQQKPGKAPKLLIYATSNLRSGVPSRFSGSGSGTDFTLTISSLQPEDFATYYCQQSYSIPRFTFGPGTKVDIK
notes: exemplary MMP-14 antibody; shares HC and LC CDRs with M0038-F01
Turning to B2, the “reduction of the area of the osteolytic lesions” value in experiment [5] is given as “about 3 fold”. Further, the “selectivity of MMP-14 inhibition” value in experiment [6] is on record as “selective inhibitor of MMP-14”.

The record behind these values is patent publication US8501181B2, “Compositions and methods for treating osteolytic disorders comprising MMP-14 binding proteins” (Dyax Corp., priority 2007, dated 2013).
